Read-outs that look alike come from different tables or passages of the source.
How the values were obtained:
recombinant human IL6 [1] = molecular target: T1, recombinant human IL6 (human, UniProt P05231 30-212); assay: cell-based or functional assay
recombinant human IL6 [2] = molecular target: T1, recombinant human IL6; assay: SPR, Biacore 3000; IL6 amine-coupled on CM5 chip, periplasmic extract injected
Method: Off-rate analysis of Nanobodies binding to IL6 was done by surface plasmon resonance on a Biacore 3000 instrument. Recombinant human IL6 was covalently bound to a CM5 sensor chip via amine coupling at a density of ˜500 RU. Remaining reactive groups were inactivated. Periplasmic extracts prepared from E. coli cells expressing anti-IL6 Nanobodies were diluted 10 or 15-fold and injected for 4 min to allow for binding to IL6 immobilized on the chip. Buffer without Nanobody was sent over the chip for 30 min to allow for spontaneous dissociation of bound Nanobody. The dissociation phase was used to calculate the koff values for each individual Nanobody (table B-1).

recombinant human IL6 [3] = molecular target: T1, recombinant human IL6; assay: Alphascreen competition: Nanobody titrated against 3 nM biotinylated human IL6; blocked partner IL6R (1 nM) captured on acceptor beads coated with anti-IL6R MAb BN-12; streptavidin donor beads; readout cps
Method: Purified samples of Nanobodies PMP6B6, PMP7G5, PMP7G9 and PMP7G4 were analyzed in Alphascreen for their ability to inhibit the interaction between IL6 and IL6R. In this assay, various concentrations of anti-IL6 Nanobodies ranging from 1 uM to 10 pM were incubated with 3 nM biotinylated human IL6 for 15 min in a 384-wells plate. Subsequently a mixture of IL6R (1 nM) and acceptor beads (20 ug/ml) coated with anti-IL6R MAb BN-12 (Diaclone) were added and incubated for 30 min. Finally, streptavidin coated donor beads (20 ug/ml) were added. After 1 hour of incubation plates were read on the Envison Alphascreen reader (PerkinElmer). All experiments were performed in duplicate.

recombinant human IL6 [4] = molecular target: T1, recombinant human IL6; assay: cell-based or functional assay; remark: listed apart in the source

| IC50, inhibition of proliferation of the murine hybridoma cell line B9 (B9 assay, cell proliferation normalized) (recombinant human IL6 [1]) [nM] | koff (recombinant human IL6 [2]) [s⁻¹] | IC50 (recombinant human IL6 [3]) [nM] | IC50, inhibition of proliferation of the murine hybridoma cell line B9 (B9 assay, cell proliferation normalized) (recombinant human IL6 [4]) [nM] | Binder |
| --- | --- | --- | --- | --- |
| 0.017 | 0.000412 | 6.1 |  | PMP7G5 (VHH, Monovalent Nanobody) VHH: QVKLEESGGGLVQPGGSLRLSCAASGSISRFNIMGWYRQAPGKQRELVADITNGGTTMYADSVKGRFTISRDNTKNTVYLQMNSLKPEDTAVYYCHTYYPTTGFDDWGQGAQVTVSS |
| 0.385 | 0.00287 | 3.4 |  | PMP7G9 (VHH, Monovalent Nanobody) VHH: QVQLVESGGGLVQPGGSLRLSCAASGFSLDYYGVGWFRQAPGKEREGVSCISSSDGDTYYADSVKGRFTISRDNAKNTVYLQMNSLKPEDTAVYYCATDLSDYGVCSRWPSPYDYWGQGTQVTVSS |
|  | 3.66e-05 |  | 0.008 | PMP13F12 (VHH, Monovalent Nanobody) VHH: AVQLVDSGGGLVQAGGSLRLSCAASGRTFSSSPMGWFRQAPGKEREFVAAISGRSGNTYYADSVKGRFTISRDNAKNTVYLQMNSLKPEDTAVYYCAAERVGLLLTVVAEGYDYWGQGTQVTVSS |
|  | 0.00124 |  | 2.58 | PMP21H1 (VHH, Monovalent Nanobody) VHH: QVQLVESGGGLVQTGGSLRLSCAASGSTFSKHHATGWFRQAPGKEREFVAALNWSGGNTYYTDSVKGRFTISRDNAQNTVYLQMNSLKPEDTAVYYCAAGSYVFYFTVRDQYDYWGQGTQVTVSS |
| 0.028 | 0.00027 |  |  | PMP6B12 (VHH, Monovalent Nanobody) VHH: AVQLVESGGGLVQPGGSLRLSCAASGFTLAYYAIGWFRQAPGKEREGVSCISSSVGTTYYSDSVKGRFTISRDNAKNTVYLQMNSLKPEDTAVYYCVRSSWFDCGVQGRDLGNEYDYRGQGTQVTVSS |
| 0.003 | 0.000433 | 2 |  | PMP6B6 (VHH, Monovalent Nanobody) VHH: QVQLVESAGGLVQPGGSLRLSCAASGIIFSINAMGWYRQAPGKRRELVADIMPYGSTEYADSVKGRFTISRDNAKNTVYLQMNSLKPEDTAVYYCHSYDPRGDDYWGQGTQVTVSS |
| 0.421 | 0.00208 | 2.5 |  | PMP7G4 (VHH, Monovalent Nanobody) VHH: AVQLVESGGGLVQPGGSLRLSCAASGSIFSRLAMDWYRQAPGKQRELVASISRSGTTMAADSVKGRFTISRDNAENMVYLQMNSLKPEDTAVYVCMAFDGYSGSDYWGRGTQVTVSS |
| 1.07 | 0.000545 |  |  | PMP6E10 (VHH, Monovalent Nanobody) VHH: QVKLEESGGGLVQAGGSLRLSCVVSGRTFSPYTIAWFRQAPGKEREFVTTIIGSDRSTDLDGDTYYADSVRGRFTISRNDAKNTVFLQMSSLKPEDTAVYYCALTGKGYVFTPNEYDYWGQGTQVTVSS |
